{"source": "patent US20140235820A1", "about": "“METHODS AND COMPOSITIONS FOR MODULATING THE Wnt PATHWAY” (Genentech, Inc., priority 2010, published 2014)", "molecular_target": "T1, LRP6 (Homo sapiens, UniProt O75581)", "T1 construct": "made in house; host or cells: Tni insect cells (baculovirus, secreted)", "T1 sequence (O75581 20-1253)": "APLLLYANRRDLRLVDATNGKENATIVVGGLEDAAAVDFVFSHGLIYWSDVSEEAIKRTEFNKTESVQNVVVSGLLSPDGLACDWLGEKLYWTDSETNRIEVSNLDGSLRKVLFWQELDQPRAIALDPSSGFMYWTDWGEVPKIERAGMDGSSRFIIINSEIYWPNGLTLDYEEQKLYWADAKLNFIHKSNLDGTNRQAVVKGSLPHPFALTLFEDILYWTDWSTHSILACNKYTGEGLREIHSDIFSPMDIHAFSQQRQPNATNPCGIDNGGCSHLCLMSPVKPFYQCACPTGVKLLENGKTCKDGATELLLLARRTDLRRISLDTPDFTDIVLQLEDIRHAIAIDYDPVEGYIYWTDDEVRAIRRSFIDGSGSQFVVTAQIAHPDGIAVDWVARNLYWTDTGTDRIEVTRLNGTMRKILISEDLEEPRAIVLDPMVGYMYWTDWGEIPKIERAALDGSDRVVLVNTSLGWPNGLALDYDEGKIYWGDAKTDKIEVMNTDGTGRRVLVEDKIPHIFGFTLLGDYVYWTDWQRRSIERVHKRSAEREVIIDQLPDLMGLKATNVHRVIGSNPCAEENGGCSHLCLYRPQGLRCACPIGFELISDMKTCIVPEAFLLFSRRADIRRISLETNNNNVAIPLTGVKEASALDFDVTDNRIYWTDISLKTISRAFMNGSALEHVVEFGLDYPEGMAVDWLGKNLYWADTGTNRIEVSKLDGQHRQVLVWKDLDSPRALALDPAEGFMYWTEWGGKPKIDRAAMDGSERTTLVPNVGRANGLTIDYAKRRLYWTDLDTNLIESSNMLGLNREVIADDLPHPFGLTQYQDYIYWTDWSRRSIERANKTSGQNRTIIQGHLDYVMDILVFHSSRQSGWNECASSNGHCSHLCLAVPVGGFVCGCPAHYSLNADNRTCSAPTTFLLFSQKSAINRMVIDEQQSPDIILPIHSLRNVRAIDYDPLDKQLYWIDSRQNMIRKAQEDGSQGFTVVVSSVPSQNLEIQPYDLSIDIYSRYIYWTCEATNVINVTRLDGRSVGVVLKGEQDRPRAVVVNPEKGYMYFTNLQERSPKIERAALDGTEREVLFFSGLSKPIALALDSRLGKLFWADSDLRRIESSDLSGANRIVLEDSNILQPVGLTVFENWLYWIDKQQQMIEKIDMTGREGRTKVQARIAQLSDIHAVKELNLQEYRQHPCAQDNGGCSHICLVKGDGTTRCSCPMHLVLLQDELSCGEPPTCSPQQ", "assay": "Biolayer interferometry binding to any LRP6 construct tested", "method": "Binding kinetics were measured by biolayer interferometry using an Octet Red instrument (ForteBio) as previously described (11). Streptavidin (SA) biosensors were loaded with biotinylated hLRP6 in 50 mMTris, pH 8, 300 mM NaCl, 5% (v/v) glycerol, and 0.05% (w/v) Triton X-100. The loaded biosensors were washed in the same buffer before carrying out association and dissociation measurements for the indicated times. The Kd of each interaction was determined using steady state-analysis through the Octet Red software v6.3. Each reported value represents an average of three or more experiments at different concentrations, with a fitted experimental curve for which the square of the correlation coefficient (R^2) is above 0.96.\nThe interaction of the different Dkks and sclerostin with various domains of LRP6 was measured using a biolayer interferometry assay (11). Purified receptors contained individual β-propeller-EGF-like units (E1, E2, or E4), two β-propellers (E1E2 or E3E4), or four β-propellers (E1E4))—as follows:\nHuman LRP6: construct E1E4-amino acids A20-Q1253 of LPR6; construct E1E2-amino acids A20-E631 of LPR6; construct E3E4 amino acids E631-Q1253 of LPR6; construct E1-amino acids A20-D325 of LPR6; construct E2-amino acids […]-E631 of LPR6; construct E4-T933-Q1253. The individual LRP6 β-propeller E3 could not be expressed."}
{"substance": "Dkk3: Dickkopf 3, carrier-free protein from R&D Systems", "values": [{"measurement": "binding to any LRP6 construct tested", "result": "failed to bind"}]}
